Test results reported in US20210284724A1 (I MAB BIOPHARMA US, published 2021).

T1: cynomolgus CXCL13 (cynomolgus, UniProt H6WS58 23-109)
T1 construct: also called cynoCXCL13; Cyno CXCL13
T1 sequence: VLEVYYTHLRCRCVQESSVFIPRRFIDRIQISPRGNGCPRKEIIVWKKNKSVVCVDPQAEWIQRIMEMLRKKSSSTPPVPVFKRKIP

T2: human CXCL13 (human, UniProt O43927 23-109)
T2 construct: also called huCXCL13; rhCXCL13
T2 sequence (looked up): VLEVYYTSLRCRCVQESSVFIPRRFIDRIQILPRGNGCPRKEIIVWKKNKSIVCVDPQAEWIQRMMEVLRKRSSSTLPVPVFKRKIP

T3: mouse CXCL13 (mouse, UniProt O55038 22-109)
T3 construct: also called rmCXCL13
T3 sequence (looked up): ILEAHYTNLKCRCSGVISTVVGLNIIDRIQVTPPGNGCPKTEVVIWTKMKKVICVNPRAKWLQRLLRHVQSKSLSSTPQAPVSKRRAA


What was measured:
cynomolgus CXCL13 = biological target: T1, cynomolgus CXCL13; experiment: ELISA, coated antigen
human CXCL13 [1] = biological target: T2, human CXCL13; experiment: ELISA, coated antigen
mouse CXCL13 = biological target: T3, mouse CXCL13; experiment: ELISA, coated antigen
human CXCL13 [2] = biological target: T2, human CXCL13; experiment: cell-based blocking ELISA, CXCL13 to CHO-K1-CXCR5
Method: Splenocytes were electro-fused with mouse myeloma cell line SP2/0 cells and plated into 96-well culture plate. The hybridoma supernatants were tested by ELISA binding assay for anti-human CXCL13 binders. Supernatants of positive binding clones were screened for function in blocking of human CXCL13 binding to its […] CXCR5 by Cell-based receptor blocking ELISA assay. Briefly, 5×10⁴ CHO-K1-CXCR5 cells were plated in 96-well plate with 100 μl of culture medium and incubated at 37° C. overnight. Cells were fixed with 100 μl of 2% PFA at RT for 1 hr after washing with PBS for 1 time. Blocking was done with 1% BSA in PBST for 1 hr at RT. Supernatants were diluted with PBS and pre-incubated with equal volume of 0.3 μg/ml human CXCL13 for 30 min at RT. 100 μl of antibody-antigen complex was then transferred into each cell wells for 30 min at RT. The samples were washed with 1×PBST for 3 times and 100 μl of 3 μg/ml of human Mab5261 antibody was add into each well to capture human CXCL13 and anti-human Fc-HRP was used to indirectly detect human CXCL13 when it bound to CHO-K1-CXCR5 cells. […] Reading was done at […].
Those antibodies were purified from hybridoma supernatants by binding with Protein G column and characterized by ELISA binding assays and cell-based blocking ELISA assays. […] 11/20 clones bound to both human CXCL13 and cynomolgus CXCL13 appeared to completely block human CXCL13 to human CXCR5. 11 blockers bound to both huCXCL13 and cynoCXCL13 were produced as chimeric human IgG1 antibodies for further Characterization.

| Binder | binding result (cynomolgus CXCL13) | EC50 (human CXCL13 [1]) [µg/mL] | binding result (mouse CXCL13) | IC50 (human CXCL13 [2]) [µg/mL] |
| --- | --- | --- | --- | --- |
| 175E3B10 (antibody, V domains shown, Hybridoma mAb) VH: QVTLKESGPGILQPSQTLSLTCSFSEFSLSVFGMGVGWIRQPSGKGLEWLAHIWWDDEKYYNPALKSRLTISKDTSKNQVFLKIANVDTADTATYFCARIDGYYDFDYWGQGTTLTVSS VL: DVLMTQTPLSLPVSLGTQASIFCRSSHSIVQDNGNTYLQWYLQKPGQSPKLLIYKVSNRFSGVPDRFSGSGSGTDFTLKISRVEAEDLGVYYCFQGSYVPYTFGGGTKLEIK | no binding | 0.0326 | no binding | 1.42 |
| 184H10B5 (antibody, V domains shown, Hybridoma mAb) VH: QVTLKESGPGILQPSQTLSLTCSFSEFSLSVFGMGVGWIRQPSGKGLEWLAHIWWDDEKYYNPALKSRLTISKDTSKNQVFLKIANVDTADTATYYCARIDGYYDFDYWGQGTTLTVSS VL: DVLMTQTPLSLPVSLGTQASISCRSSHSIVQDNGNTYLQWYLQKPGQSPQLLIYKVSNRFSGVPDRFSGSGSGTDFTLKISRVEAEDLGVYYCFQGSYVPYTFGGGTKLEIK | no binding | 0.0272 | no binding | 4.85 |
| 181B11G12 (antibody, V domains shown, Hybridoma mAb) VH: EVKLVESEGGLVQPGSSMKLSCTASGFTFSDYYMAWVRQVPEKGLEWVANINYDGSDTYYLDSLKSRFIISRDNAKNILYLQMSSLKSEDTATYYCVRDVAYDDSYAMDYWGQGTSVTVSS VL: DIQMTQSPSSLSASLGGKVTITCKASQDINKYIAWYQHKPGKGPRLLIHYTSTLQPGIPSRFSGSGSGRDYSFSISNLEPEDIATYYCLQYDSLYTFGGGTKLEIK | no binding | 0.0223 | no binding | 0.703 |
| 178E2B3 (antibody, V domains shown, Hybridoma mAb) VH: QVQLQQSGAELVRPGTSVKVSCKASGYAFTNHLIEWVKQRPGQGLEWIGVINPGSGGTKYNEKFKGKATVTADKSSSTVYMQLNSLTSEDSAVYFCARSSDGYYEEDYFDYWGQGTTLTVSS VL: QIVLTQSPAIMSASPGEKVTMTCSASSSVNYMQWYQQKSGTSPKRWIYDTSELASGVPDRFSGSGSGTSYSLTISSMEAEDVATYYCQQWSSDPITFGAGTKLELK | no binding | 0.0153 | no binding | 0.974 |
| 168D6F2 (antibody, V domains shown, Hybridoma mAb) VH: QVQLQQPGAELVKPGASVKLSCQASGYTFTSYWMHWVKQRPGRGLEWIGGIDPDSGATKDNEKFKTKATLTVDKPSRTAYIQLSSLTSEDSAVFYCARGSTVVAPGDYFAMDYWGQGTSVTVSS VL: DIVLTPSPTSLAVSLGQRATMSCRASESVDNYGISFMHWYQQKPGQPPKLLIYRASNLDSGIPARFSASGSRTDFTLTINPVETDDVATYYCQQSNKDPWTFGGGTKLEIK | no binding | 0.0218 | no binding | 2.09 |
| 168A2D4 (antibody, V domains shown, Hybridoma mAb) VH: EVQLQQSGPELVKPGASVKISCKASGNTLTDYYMNWVKQSHGKSLEWIGDINPNNGDIIYNQKFKGKATLTVAKSSSTAYMELRSLTSEDSAVYYCAIYYDPYYHAMDYWGQGTSVTVSS VL: DIVMTQSHKFMSTSVRDRVSITCKASQDVSTGVAWYQQKPGQSPKLLIYSASYRYTGVPDRFTGSGSGTDFTFTISSVQAEDLAVYYCQQQYSVPLTFGAGTKLELK | no binding | 0.134 | no binding | 0.29 |
| 177D2G10 (antibody, V domains shown, Hybridoma mAb) VH: QIALKESGPGILQSSQTLSLTCSFSGFSLSTSGMHVGWFRQPSGKTLEWLAHIYWDDDKRYNPSLKSRLTISKDTSRNQVFLNLTNVDTADTATYYCARRGGDYDYDEGFDYWGQGTTLTVSS VL: DVVMTQTPLSLPVSLGDQASISCRSSQSLVHSNGFTYLHWYLQKPGQSPKLLIYKVSNRFSGVPDRFSGSGSGTEFTLRISRVEAEDLGVYFCSQSTHVPYTFGGGTKLEIK | no binding | 0.0544 | no binding | ~912 |
